Test [1] concerns the target Fc tagged human PDL1 (human) (UniProt Q9NZQ7). Put plainly: SPR Biacore T200; PDL1-Fc captured; molecule 0.12-90 nM. In general terms: SPR reads the build-up and loss of mass on a sensor chip optically.
The target of test [2] is human PDL1 (recombinant, soluble) (human) (UniProt Q9NZQ7). Briefly: PDL1/PD-1 competition ELISA; PD-1 coated, biotinylated PDL1 1 ng/ml. In general terms: An ELISA detects its analyte on a solid surface through an enzyme-linked reagent.
Test [3] has as its target human CD137-Fc chimeric protein (human) (UniProt Q07011). Briefly: SPR Biacore T200; CD137-Fc captured; molecule as analyte.
Test [4] deals with human PDL1 expressed on cells (human) (UniProt Q9NZQ7). Briefly: cell-based or functional assay.
Test [5] deals with human PDL1 (recombinant, soluble) (human) (UniProt Q9NZQ7). Briefly: PDL1/B7-1 competition ELISA; B7-1 coated, biotinylated PDL1 40 ng/ml.

B1: PRO1430 (scDb-scFv: 37-20-B03 sc01 / 38-02-A04 sc013 / 19-01-H04 sc03) (protein, from a related filing)
chain: DIQMTQSPSSLSASVGDRVTITCQASQSIGTYLAWYQQKPGKAPKLLIYRAFILASGVPSRFSGSGSGTDFTLTISSLQPEDFATYYCQSNFYSDSTTIGPNAFGTGTKVTVLGGGGGSEVQLVESGGGLVQPGGSLRLSCAASGFSFSNSYWICWVRQAPGKCLEWIGCTFVGSSDSTYYANWAKGRFTISRDNSKNTVYLQMNSLRAEDTAVYYCARHPSDAVYGYANNLWGQGTLVTVSSGGGGSGGGGSGGGGSGGGGSIQMTQSPSSLSASVGDRVTITCQASQSINNVLAWYQQKPGKAPKLLIYRASTLASGVPSRFSGSGSGTDFTLTISSLQPEDFATYYCQSSYGNYGDFGCGTKVTVLGGGGGSQVQLQESGPGLVKPSETLSLTCKVSGFSFNSDYWIYWIRQPPGKGLEWIGSIYGGSSGNTQYASWAQGRVTISVDSSKNQFSLKLSSVTAADTAVYYCARGYVDYGGATDLWGQGTLVTVSSGGGGSGGGGSIQMTQSPSSLSASVGDRVTITCQSSESVYSNNQLSWYQQKPGQPPKLLIYDASDLASGVPSRFSGSGSGTDFTLTISSLQPEDFATYYCAGGFSSSSDTAFGGGTKLTVLGGGGGSGGGGSGGGGSGGGGSEVQLVESGGGLVQPGGSLRLSCAASGFSLSSNAMGWVRQAPGKGLEYIGIISVGGFTYYASWAKGRFTISRDNSKNTVYLQMNSLRAEDTATYFCARDRHGGDSSGAFYLWGQGTLVTVSS
In general, Kd refers to the concentration at which binding is half-saturated. Higher therefore signals a looser complex. In general, koff refers to the rate constant with which the complex falls apart. A higher koff goes with a short-lived complex. Broadly, the kon is the rate constant with which the complex forms. Low values mean slower complex formation, high ones faster complex formation. One may read the IC50 as the concentration that gives 50% inhibition. In test [1], B1 gave a Kd of 4.5 pM, a koff of 2.4e-05 s⁻¹ and a kon of 5.3e+06 M⁻¹ s⁻¹. In test [2], the IC50 came out at 1.92 ng/mL and the rel. IC50 (IC50, Avelumab/IC50, test molecule) stood at 0.73. In test [3], the Kd was found to be 1500 pM, the koff was determined as 0.00071 s⁻¹ and the kon came out at 460000 M⁻¹ s⁻¹. In test [4], this molecule came in with an NF-AT potency assay IC50 (with HSA) of 16.2 ng/mL and an NF-AT potency assay rel. IC50 (IC50, Avelumab/IC50, test molecule) (with HSA) of 1.45. In addition, in test [5], the 50% inhibitory concentration (IC50) amounted to 2.42 ng/mL and the rel. IC50 (IC50, Avelumab/IC50, test molecule) was 1.15.

B2: PRO1479 (scDb-scFv: 37-20-B03 sc09.1 / 38-02-A04 sc013 / 19-01-H04 sc03) (protein, from a related filing)
chain: DIQMTQSPASLSASVGDRVTITCQASQSIGTYLAWYQQKPGKPPKLLIYRAFILASGVPSRFSGSGSGTDFTLTISSLQPEDFATYYCQSNFYSDSTTIGPNAFGTGTKVTVLGGGGGSEVQLVESGGGLVQPGGSLRLSCAASGFSFSNSYWICWVRQAPGKCLEWIGCTFVGSSDSTYYANWAKGRFTISRDNSKNTVYLQMNSLRAEDTAVYYCARHPSDAVYGYANNLWGQGTLVTVSSGGGGSGGGGSGGGGSGGGGSIQMTQSPSSLSASVGDRVTITCQASQSINNVLAWYQQKPGKAPKLLIYRASTLASGVPSRFSGSGSGTDFTLTISSLQPEDFATYYCQSSYGNYGDFGCGTKVTVLGGGGGSEVQLVESGGGLVQPGGSLRLSCAASGFSFNSDYWIYWVRQAPGKGLEWIASIYGGSSGNTQYASWAQGRFTISRDNSKNTVYLQMNSLRAEDTAVYFCARGYVDYGGATDLWGQGTLVTVSSGGGGSGGGGSIQMTQSPSSLSASVGDRVTITCQSSESVYSNNQLSWYQQKPGQPPKLLIYDASDLASGVPSRFSGSGSGTDFTLTISSLQPEDFATYYCAGGFSSSSDTAFGGGTKLTVLGGGGGSGGGGSGGGGSGGGGSEVQLVESGGGLVQPGGSLRLSCAASGFSLSSNAMGWVRQAPGKGLEYIGIISVGGFTYYASWAKGRFTISRDNSKNTVYLQMNSLRAEDTATYFCARDRHGGDSSGAFYLWGQGTLVTVSS
As to B2, in test [1], the Kd is 9.2 pM, the koff was determined as 3.9e-05 s⁻¹ and the kon worked out at 4.2e+06 M⁻¹ s⁻¹. In addition, in test [2], the IC50 is 2.65 ng/mL and the rel. IC50 (IC50, Avelumab/IC50, test molecule) worked out at 0.86. In test [3], the Kd worked out at 1700 pM, the koff came out at 0.00054 s⁻¹ and the kon is 330000 M⁻¹ s⁻¹. Moreover, in test [4], the NF-AT potency assay IC50 (with HSA) was determined as 50.4 ng/mL and the NF-AT potency assay rel. IC50 (IC50, Avelumab/IC50, test molecule) (with HSA) came out at 1.04. Also, in test [5], the IC50 came out at 10.7 ng/mL and the rel. IC50 (IC50, Avelumab/IC50, test molecule) was 1.38.

B3: PRO1482 (scDb-scFv: 37-20-B03 sc09.1 / 38-02-A04 sc013 / 19-01-H04 sc03) (protein, from a related filing)
chain: DIQMTQSPSSLSASVGDRVTITCQASQSINNVLAWYQQKPGKAPKLLIYRASTLASGVPSRFSGSGSGTDFTLTISSLQPEDFATYYCQSSYGNYGDFGCGTKVTVLGGGGGSEVQLVESGGGLVQPGGSLRLSCAASGFSFNSDYWIYWVRQAPGKGLEWIASIYGGSSGNTQYASWAQGRFTISRDNSKNTVYLQMNSLRAEDTAVYFCARGYVDYGGATDLWGQGTLVTVSSGGGGSGGGGSGGGGSGGGGSIQMTQSPASLSASVGDRVTITCQASQSIGTYLAWYQQKPGKPPKLLIYRAFILASGVPSRFSGSGSGTDFTLTISSLQPEDFATYYCQSNFYSDSTTIGPNAFGTGTKVTVLGGGGGSEVQLVESGGGLVQPGGSLRLSCAASGFSFSNSYWICWVRQAPGKCLEWIGCTFVGSSDSTYYANWAKGRFTISRDNSKNTVYLQMNSLRAEDTAVYYCARHPSDAVYGYANNLWGQGTLVTVSSGGGGSGGGGSIQMTQSPSSLSASVGDRVTITCQSSESVYSNNQLSWYQQKPGQPPKLLIYDASDLASGVPSRFSGSGSGTDFTLTISSLQPEDFATYYCAGGFSSSSDTAFGGGTKLTVLGGGGGSGGGGSGGGGSGGGGSEVQLVESGGGLVQPGGSLRLSCAASGFSLSSNAMGWVRQAPGKGLEYIGIISVGGFTYYASWAKGRFTISRDNSKNTVYLQMNSLRAEDTATYFCARDRHGGDSSGAFYLWGQGTLVTVSS
In test [1], B3 showed a Kd of 9.8 pM, a koff of 3.3e-05 s⁻¹ and a kon of 3.4e+06 M⁻¹ s⁻¹. For the same molecule, in test [2], the IC50 was found to be 1.78 ng/mL and the rel. IC50 (IC50, Avelumab/IC50, test molecule) came to 1.24. In test [3], the Kd was found to be 1100 pM, the koff stood at 0.00036 s⁻¹ and the kon was determined as 320000 M⁻¹ s⁻¹. For the same molecule, in test [4], the NF-AT potency assay IC50 (with HSA) stood at 54.8 ng/mL and the NF-AT potency assay rel. IC50 (IC50, Avelumab/IC50, test molecule) (with HSA) amounted to 0.68. In test [5], the IC50 is 8.18 ng/mL and the rel. IC50 (IC50, Avelumab/IC50, test molecule) is 1.51.

B4: PRO1431 (scDb-scFv: 33-03-G02 sc18 / 38-02-A04 sc013 / 19-01-H04 sc03) (protein, from a related filing)
chain: DIQMTQSPSSLSASVGDRVTITCQASQSINDYLAWYQQKPGKAPKLLIYKASTLASGVPSRFSGSGSGTDFTLTISSLQPEDFATYYCQQGYIITDIDNVFGTGTKVTVLGGGGGSEVQLVESGGGLVQPGGSLRLSCAASGFSFSNSYWICWVRQAPGKCLEWIGCTFVGSSDSTYYANWAKGRFTISRDNSKNTVYLQMNSLRAEDTAVYYCARHPSDAVYGYANNLWGQGTLVTVSSGGGGSGGGGSGGGGSGGGGSIQMTQSPSSLSASVGDRVTITCQASQSINNVLAWYQQKPGKAPKLLIYRASTLASGVPSRFSGSGSGTDFTLTISSLQPEDFATYYCQSSYGNYGDFGCGTKVTVLGGGGGSQVQLQESGPGLVKPSETLSLTCKASGFSFSSGYDMCWVRQPPGKGLEWIACVVAGSVDITYYASWAKGRVTISKDSSKNQVSLKLSSVTAADTAVYYCARKDAYSDAFNLWGQGTLVTVSSGGGGSGGGGSIQMTQSPSSLSASVGDRVTITCQSSESVYSNNQLSWYQQKPGQPPKLLIYDASDLASGVPSRFSGSGSGTDFTLTISSLQPEDFATYYCAGGFSSSSDTAFGGGTKLTVLGGGGGSGGGGSGGGGSGGGGSEVQLVESGGGLVQPGGSLRLSCAASGFSLSSNAMGWVRQAPGKGLEYIGIISVGGFTYYASWAKGRFTISRDNSKNTVYLQMNSLRAEDTATYFCARDRHGGDSSGAFYLWGQGTLVTVSS
In test [1], B4 came in with a Kd of 14 pM, a koff of 4.5e-05 s⁻¹ and a kon of 3.3e+06 M⁻¹ s⁻¹. For the same molecule, in test [2], the IC50 turned out to be 2.75 ng/mL and the rel. IC50 (IC50, Avelumab/IC50, test molecule) turned out to be 0.51. Further, in test [3], the Kd was determined as 1700 pM, the koff was found to be 0.00075 s⁻¹ and the kon stood at 450000 M⁻¹ s⁻¹. For the same molecule, in test [4], the NF-AT potency assay IC50 (with HSA) came out at 9.83 ng/mL and the NF-AT potency assay rel. IC50 (IC50, Avelumab/IC50, test molecule) (with HSA) is 3.73. Further, in test [5], the IC50 came out at 3.31 ng/mL and the rel. IC50 (IC50, Avelumab/IC50, test molecule) was determined as 0.84.

B5: PRO1473 (scDb-scFv: 33-03-G02 sc03 / 38-02-A04 sc013 / 19-01-H04 sc03) (protein, from a related filing)
chain: DFQLTQSPSSLSASVGDRVTITCQASQSINDYLAWYQQKPGKSPKLLIYKASTLASGVPSRFSGSGSGTDFTLTISSLQPEDFATYYCQQGYIITDIDNVFGTGTKVTVLGGGGGSEVQLVESGGGLVQPGGSLRLSCAASGFSFSNSYWICWVRQAPGKCLEWIGCTFVGSSDSTYYANWAKGRFTISRDNSKNTVYLQMNSLRAEDTAVYYCARHPSDAVYGYANNLWGQGTLVTVSSGGGGSGGGGSGGGGSGGGGSIQMTQSPSSLSASVGDRVTITCQASQSINNVLAWYQQKPGKAPKLLIYRASTLASGVPSRFSGSGSGTDFTLTISSLQPEDFATYYCQSSYGNYGDFGCGTKVTVLGGGGGSQSQLQESGPGLVKPSETLSLTCKASGFSFSSGYDMCWVRQPPGKGLEWIACVVAGSVDITYYASWAKGRVTISKDSSKNQVSLKLSSVTAADTAVYFCARKDAYSDAFNLWGQGTLVTVSSGGGGSGGGGSIQMTQSPSSLSASVGDRVTITCQSSESVYSNNQLSWYQQKPGQPPKLLIYDASDLASGVPSRFSGSGSGTDFTLTISSLQPEDFATYYCAGGFSSSSDTAFGGGTKLTVLGGGGGSGGGGSGGGGSGGGGSEVQLVESGGGLVQPGGSLRLSCAASGFSLSSNAMGWVRQAPGKGLEYIGIISVGGFTYYASWAKGRFTISRDNSKNTVYLQMNSLRAEDTATYFCARDRHGGDSSGAFYLWGQGTLVTVSS
Consider B5, for which, in test [1], the Kd amounted to 8.2 pM, the koff came to 2.9e-05 s⁻¹ and the kon was determined as 3.6e+06 M⁻¹ s⁻¹. For the same molecule, in test [2], the IC50 is 4.14 ng/mL and the rel. IC50 (IC50, Avelumab/IC50, test molecule) came out at 0.56. In test [3], this molecule had a Kd of 2000 pM, a koff of 0.0006 s⁻¹ and a kon of 310000 M⁻¹ s⁻¹. In test [4], this molecule returned an NF-AT potency assay IC50 (with HSA) of 35.2 ng/mL and an NF-AT potency assay rel. IC50 (IC50, Avelumab/IC50, test molecule) (with HSA) of 1.11. Besides, in test [5], the IC50 amounted to 8.89 ng/mL and the rel. IC50 (IC50, Avelumab/IC50, test molecule) is 1.49.

The values are drawn from patent US20200283528A1.
